The values below come from patent US20250320501A1, “PALMITOYLATION OF THE ALTERNATIVE AMINO TERMINUS OF THE BTK-C ISOFORM CONTROLS SUBCELLULAR DISTRIBUTION AND SIGNALING” (The Research Foundation for the State University of New York, priority 2022, published 2025).

This experiment has as its system BTK-A and BTK-C. The experiment can be described thus: Activating phosphorylation of BTK isoforms after stimulation with other ligands. The format is cell-based, human. To be noted: ligand stimulation (not shown).

B1: RANKL: ligand used for stimulation of BTK activation (protein, UniProt O14788 140-317, looked up)
Tumor necrosis factor ligand …: IRAEKAMVDGSWLDLAKRSKLEAQPFAHLTINATDIPSGSHKVSLSSWYHDRGWAKISNMTFSNGKLIVNQDGFYYLYANICFRHHETSGDLATEYLQLMVYVTKTSIKIPSSHTLMKGGSTKYWSGNSEFHFYSINVGGFFKLRSGEEISIEVSNPSLLDPDQDATYFGAFKVRDID
Turning to B1, the “increase of activating phosphorylation levels above unstimulated levels” value is “only modestly”.
